Results: US20110044995A1

What was measured:
Assay in all cases: cell-based or functional assay
[1] = biological target: envelope of HIV-1 strain 89.6 (HIV-1 strain 89.6) (UniProt Q73372)
[2] = biological target: envelope of HIV-1 strain BaL (HIV-1 strain BaL)
[3] = biological target: envelope of HIV-1 strain IIIB (HIV-1 strain IIIB)
[4] = biological target: envelope of HIV-1 strain JR-FL (JRFLwt), on virus (HIV-1 strain JR-FL)
[5] = biological target: envelope of HIV-1 strain JRFLGPER
[6] = biological target: envelope of HIV-1 strain SF162 (HIV-1 strain SF162) (UniProt P19550)
[7] = biological target: envelope of HIV-1 strain YU2 (HIV-1 strain YU2) (UniProt P35961)
[8] = biological target: envelope of HIV-2 strain EHO (HIV-2 strain EHO)
[9] = biological target: envelope of HIV-2 strain ROD (HIV-2 strain ROD) (UniProt P04577)
[10] = biological target: envelope of standard panel pseudotyped virus SVPB11 (HIV-1 subtype B)
[11] = biological target: envelope of standard panel pseudotyped virus SVPB12 (HIV-1 subtype B)
[12] = biological target: envelope of standard panel pseudotyped virus SVPB13 (HIV-1 subtype B)
[13] = biological target: envelope of standard panel pseudotyped virus SVPB14 (HIV-1 subtype B)
[14] = biological target: envelope of standard panel pseudotyped virus SVPB15 (HIV-1 subtype B)
[15] = biological target: envelope of standard panel pseudotyped virus SVPB16 (HIV-1 subtype B)
[16] = biological target: envelope of standard panel pseudotyped virus SVPB17 (HIV-1 subtype B)
[17] = biological target: envelope of standard panel pseudotyped virus SVPB18 (HIV-1 subtype B)
[18] = biological target: envelope of standard panel pseudotyped virus SVPB5 (HIV-1 subtype B)
[19] = biological target: envelope of standard panel pseudotyped virus SVPB6 (HIV-1 subtype B)
[20] = biological target: envelope of standard panel pseudotyped virus SVPB8 (HIV-1 subtype B)

envelope of HIV-1 strain YU2 (HIV-1 strain YU2), sequence (P35961 32-843): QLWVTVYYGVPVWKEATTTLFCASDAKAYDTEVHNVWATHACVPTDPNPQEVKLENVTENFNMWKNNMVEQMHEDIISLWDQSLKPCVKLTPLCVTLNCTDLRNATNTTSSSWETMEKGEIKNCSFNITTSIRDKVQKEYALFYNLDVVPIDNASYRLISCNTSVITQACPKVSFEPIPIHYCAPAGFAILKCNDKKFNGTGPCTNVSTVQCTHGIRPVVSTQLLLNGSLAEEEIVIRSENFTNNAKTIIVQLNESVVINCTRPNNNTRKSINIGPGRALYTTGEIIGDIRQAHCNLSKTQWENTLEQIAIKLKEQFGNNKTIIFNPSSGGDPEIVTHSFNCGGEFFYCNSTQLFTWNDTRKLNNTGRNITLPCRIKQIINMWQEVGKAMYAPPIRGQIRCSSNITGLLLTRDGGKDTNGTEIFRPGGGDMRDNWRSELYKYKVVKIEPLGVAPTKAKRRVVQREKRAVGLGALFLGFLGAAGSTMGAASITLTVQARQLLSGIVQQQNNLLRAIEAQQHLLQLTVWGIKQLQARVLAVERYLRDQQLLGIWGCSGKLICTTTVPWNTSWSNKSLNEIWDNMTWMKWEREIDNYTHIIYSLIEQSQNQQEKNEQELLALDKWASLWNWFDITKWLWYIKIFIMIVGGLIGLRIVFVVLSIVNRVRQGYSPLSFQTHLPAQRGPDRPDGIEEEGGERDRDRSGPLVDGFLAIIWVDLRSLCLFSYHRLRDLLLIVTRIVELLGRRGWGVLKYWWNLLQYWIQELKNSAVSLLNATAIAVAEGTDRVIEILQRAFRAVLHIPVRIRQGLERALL
envelope of HIV-2 strain ROD (HIV-2 strain ROD), sequence (P04577 20-858): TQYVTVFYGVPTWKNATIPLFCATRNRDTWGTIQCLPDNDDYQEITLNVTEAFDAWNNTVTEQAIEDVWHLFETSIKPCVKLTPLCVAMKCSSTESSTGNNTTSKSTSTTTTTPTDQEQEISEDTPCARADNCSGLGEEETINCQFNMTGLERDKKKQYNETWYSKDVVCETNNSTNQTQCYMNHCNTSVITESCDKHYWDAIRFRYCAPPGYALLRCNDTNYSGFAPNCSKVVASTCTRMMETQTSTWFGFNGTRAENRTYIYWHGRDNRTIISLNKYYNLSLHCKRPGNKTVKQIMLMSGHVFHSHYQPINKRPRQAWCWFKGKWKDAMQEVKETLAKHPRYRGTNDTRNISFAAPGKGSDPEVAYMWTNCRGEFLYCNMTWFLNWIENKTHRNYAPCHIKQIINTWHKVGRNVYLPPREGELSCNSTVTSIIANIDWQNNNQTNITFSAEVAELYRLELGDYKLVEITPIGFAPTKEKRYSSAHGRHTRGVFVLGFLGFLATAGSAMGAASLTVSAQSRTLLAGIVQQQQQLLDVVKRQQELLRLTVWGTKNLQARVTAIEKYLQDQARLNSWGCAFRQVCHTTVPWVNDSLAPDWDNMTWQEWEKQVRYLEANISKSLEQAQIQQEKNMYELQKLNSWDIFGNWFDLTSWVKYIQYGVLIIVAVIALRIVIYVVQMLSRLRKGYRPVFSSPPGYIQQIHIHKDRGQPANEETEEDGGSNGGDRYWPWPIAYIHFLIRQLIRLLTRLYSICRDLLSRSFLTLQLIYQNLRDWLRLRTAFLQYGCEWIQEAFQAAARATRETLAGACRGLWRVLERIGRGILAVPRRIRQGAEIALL

Question: For KD-247 (antibody), which IC50, neutralizing activity (MTT assay) [1] is on record?
Answer: 4.2 µg/mL

Question: And the IC50, neutralizing activity (MTT assay) [2]?
Answer: 3.8 µg/mL

Question: And the IC50, neutralizing activity (MTT assay) [3]?
Answer: > 50 µg/mL

Question: What about the IC50, neutralizing activity (MTT assay) [4] of the same substance?
Answer: 12 µg/mL

Question: What about the IC50, neutralizing activity (MTT assay) [5] of the same substance?
Answer: > 50 µg/mL

Question: What about the IC50, neutralizing activity (MTT assay) [6] of the same substance?
Answer: 0.21 µg/mL

Question: What about the IC50, neutralizing activity (MTT assay) [7] of the same substance?
Answer: > 50 µg/mL

Question: And the IC50, neutralizing activity (MTT assay) [8]?
Answer: > 50 µg/mL

Question: And the IC50, neutralizing activity (MTT assay) [9]?
Answer: > 50 µg/mL

Question: What about the IC50 in TZM-bl cells [10] of the same substance?
Answer: > 50 µg/mL

Question: And the IC50 in TZM-bl cells [11]?
Answer: > 50 µg/mL

Question: What about the IC50 in TZM-bl cells [12] of the same substance?
Answer: > 50 µg/mL

Question: And the IC50 in TZM-bl cells [13]?
Answer: > 50 µg/mL

Question: And the IC50 in TZM-bl cells [14]?
Answer: > 50 µg/mL

Question: What about the IC50 in TZM-bl cells [15] of the same substance?
Answer: > 50 µg/mL

Question: And the IC50 in TZM-bl cells [16]?
Answer: 17 µg/mL

Question: What about the IC50 in TZM-bl cells [17] of the same substance?
Answer: 28 µg/mL

Question: What about the IC50 in TZM-bl cells [18] of the same substance?
Answer: 1.8 µg/mL

Question: What about the IC50 in TZM-bl cells [19] of the same substance?
Answer: > 50 µg/mL

Question: What about the IC50 in TZM-bl cells [20] of the same substance?
Answer: > 50 µg/mL
